This is an account of results in paper PMC4597910.

The target of data set [1] is T1, GB1-SRSF1 RRM1+2 (UniProt Q07955 16-195). Description: NMR titration.
The target in data set [2] is T1, GB1-SRSF1 RRM1+2. Description: NMR titration. The source holds these as a separate data set.

Read-outs that look alike come from different tables or passages of the source.

T1 sequence (Q07955 16-195): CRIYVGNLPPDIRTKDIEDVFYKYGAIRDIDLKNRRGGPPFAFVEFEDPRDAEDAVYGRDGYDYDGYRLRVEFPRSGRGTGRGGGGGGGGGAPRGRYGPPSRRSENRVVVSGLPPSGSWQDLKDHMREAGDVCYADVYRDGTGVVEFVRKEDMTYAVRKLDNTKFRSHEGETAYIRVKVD

B1: WT UCAGAGGA (ssRNA)
RNA: UCAGAGGA
As for B1, the binding result in data set [1] is listed as “binds”.

B2: UCACUGGA mutant (ssRNA)
RNA: UCACUGGA
On to B2, for which the binding result in data set [2] is recorded as “binds”.
